According to the RNAGym collection of RNA variant scans (doi:10.1093/molbev/msab373):

B1: Azoarcus group I ribozyme (parent)
chain: GUGCCUUGCGCCGGGAAACCACGCAAGGGAUGGUGUCAAAUUCGGCGAAACCUAAGCGCCCGCCCGGGCGUAUGGCAACGCCGAGCCAAGCUUCGGCGCCUGCGCCGAUGAAGGUGUAGAGACUAGACGGCACCCACCUAAGGCAAACGCUAUGGUGAAGGCAUAGUCCAGGGAGUGGCGAAAGUCACACAAACCGG

Variants of: B1
Assay: reverse-splicing fitness (ratio to wild type); higher = more active; in vitro selection; Mg2+ level not given
Procedure, shortened: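 An in vitro group I ribozyme library with randomized positions was T7-transcribed and gel-purified. In triplicate, 10 pmol RNA in EPPS pH 7.5 was reacted with 50 pmoles of a 30-nt RNA substrate for 1 h at 37 °C across several added MgCl2 levels (1–48 mM), then stopped with EDTA. Products were reverse transcribed from a substrate-complementary primer, PCR-amplified and sequenced (HiSeq 4000). Fitness is a variant's read proportion after selection over that before, normalised to wild type.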

Row | Variant | reverse-splicing fitness
1 | C82G A111C A120U A145C C150G C169A | 0.00373
2 | C82G A111C A120U A145C C150G C169A U176A | 0.00295
3 | C82G A111C A120U A145C C150G C169A U176C | 0.00252
4 | C82G A111C A120U A145C C150G C169A U176G | 0.00274
5 | C82G A111C A120U A145C C150G C169G | 0.0033
6 | C82G A111C A120U A145C C150G C169G U176A | 0.00317
7 | C82G A111C A120U A145C C150G C169G U176C | 0.00245
8 | C82G A111C A120U A145C C150G C169G U176G | 0.00233
9 | C82G A111C A120U A145C C150G C169U | 0.00395
10 | C82G A111C A120U A145C C150G C169U U176A | 0.00358
11 | C82G A111C A120U A145C C150G C169U U176C | 0.00324
12 | C82G A111C A120U A145C C150G C169U U176G | 0.00222
13 | C82G A111C A120U A145C C150G U176A | 0.00364
14 | C82G A111C A120U A145C C150G U176C | 0.00457
15 | C82G A111C A120U A145C C150G U176G | 0.00221
16 | C82G A111C A120U A145C C150U | 0.0115
17 | C82G A111C A120U A145C C150U C169A | 0.00304
18 | C82G A111C A120U A145C C150U C169A U176A | 0.00238
19 | C82G A111C A120U A145C C150U C169A U176C | 0.0022
20 | C82G A111C A120U A145C C150U C169A U176G | 0.0025
21 | C82G A111C A120U A145C C150U C169G | 0.00299

Row | Variant | reverse-splicing fitness
22 | C82G A111C A120U A145C C150U C169G U176A | 0.00257
23 | C82G A111C A120U A145C C150U C169G U176C | 0.00305
24 | C82G A111C A120U A145C C150U C169G U176G | 0.00262
25 | C82G A111C A120U A145C C150U C169U | 0.003
26 | C82G A111C A120U A145C C150U C169U U176A | 0.00337
27 | C82G A111C A120U A145C C150U C169U U176C | 0.00256
28 | C82G A111C A120U A145C C150U C169U U176G | 0.00249
29 | C82G A111C A120U A145C C150U U176A | 0.00523
30 | C82G A111C A120U A145C C150U U176C | 0.00491
31 | C82G A111C A120U A145C C150U U176G | 0.00325
32 | C82G A111C A120U A145C C169A | 0.00204
33 | C82G A111C A120U A145C C169A U176A | 0.0016
34 | C82G A111C A120U A145C C169A U176C | 0.00237
35 | C82G A111C A120U A145C C169A U176G | 0.00216
36 | C82G A111C A120U A145C C169G | 0.00323
37 | C82G A111C A120U A145C C169G U176A | 0.00322
38 | C82G A111C A120U A145C C169G U176C | 0.00339
39 | C82G A111C A120U A145C C169G U176G | 0.00197
40 | C82G A111C A120U A145C C169U | 0.00341
41 | C82G A111C A120U A145C C169U U176A | 0.00293
42 | C82G A111C A120U A145C C169U U176C | 0.00289

Row | Variant | reverse-splicing fitness
43 | C82G A111C A120U A145C C169U U176G | 0.00214
44 | C82G A111C A120U A145C U176A | 0.0111
45 | C82G A111C A120U A145C U176C | 0.013
46 | C82G A111C A120U A145C U176G | 0.00462
47 | C82G A111C A120U A145G | 0.0506
48 | C82G A111C A120U A145G C150A | 0.0106
49 | C82G A111C A120U A145G C150A C169A | 0.00787
50 | C82G A111C A120U A145G C150A C169A U176A | 0.00791
51 | C82G A111C A120U A145G C150A C169A U176C | 0.00453
52 | C82G A111C A120U A145G C150A C169A U176G | 0.0032
53 | C82G A111C A120U A145G C150A C169G | 0.0054
54 | C82G A111C A120U A145G C150A C169G U176A | 0.00649
55 | C82G A111C A120U A145G C150A C169G U176C | 0.00534
56 | C82G A111C A120U A145G C150A C169G U176G | 0.00277
57 | C82G A111C A120U A145G C150A C169U | 0.00514
58 | C82G A111C A120U A145G C150A C169U U176A | 0.00632
59 | C82G A111C A120U A145G C150A C169U U176C | 0.00449
60 | C82G A111C A120U A145G C150A C169U U176G | 0.00259
61 | C82G A111C A120U A145G C150A U176A | 0.00773
62 | C82G A111C A120U A145G C150A U176C | 0.0086
63 | C82G A111C A120U A145G C150A U176G | 0.00353

Row | Variant | reverse-splicing fitness
64 | C82G A111C A120U A145G C150G | 0.0111
65 | C82G A111C A120U A145G C150G C169A | 0.00854
66 | C82G A111C A120U A145G C150G C169A U176A | 0.0121
67 | C82G A111C A120U A145G C150G C169A U176C | 0.00861
68 | C82G A111C A120U A145G C150G C169A U176G | 0.00544
69 | C82G A111C A120U A145G C150G C169G | 0.00703
70 | C82G A111C A120U A145G C150G C169G U176A | 0.00983
71 | C82G A111C A120U A145G C150G C169G U176C | 0.00829
72 | C82G A111C A120U A145G C150G C169G U176G | 0.00427
73 | C82G A111C A120U A145G C150G C169U | 0.00758
74 | C82G A111C A120U A145G C150G C169U U176A | 0.00988
75 | C82G A111C A120U A145G C150G C169U U176C | 0.00748
76 | C82G A111C A120U A145G C150G C169U U176G | 0.00438
77 | C82G A111C A120U A145G C150G U176A | 0.00628
78 | C82G A111C A120U A145G C150G U176C | 0.009
79 | C82G A111C A120U A145G C150G U176G | 0.00447
80 | C82G A111C A120U A145G C150U | 0.0408
81 | C82G A111C A120U A145G C150U C169A | 0.00785
82 | C82G A111C A120U A145G C150U C169A U176A | 0.00776
83 | C82G A111C A120U A145G C150U C169A U176C | 0.00436
